Source: publication PMC6072203

Experiments:
[1] = target: H77 NS5A 38A (hepatitis C virus genotype 1a (H77 strain)); assay: two-hybrid; Checkmate mammalian two-hybrid: GAL4/BD fusion (pBIND) and VP16/AD fusion (pACT) with the pGL4.3[luc2P/Gal4UAS/Hygro] reporter co-transfected into FT3-7 (Huh-7) cells; lysed at 48 h; F-Luc/R-Luc ratio; for NS5A both fusions carry the same NS5A
JFH1 NS5A 38A = assay: checkmate mammalian two-hybrid assay; details: Huh-7 cells; GAL4/BD-fused and VP16/AD-fused NS5A both carry the mutation; parent: est. 100; read off a plot
H77 NS5A 38A = assay: mammalian two-hybrid assay; details: Huh-7 cells; GAL4/BD-fused and VP16/AD-fused NS5A both carry the mutation; parent: est. 100; read off a plot
[2] = target: H77 NS5A 36A/37A/38A (mutation group a); assay: checkmate mammalian two-hybrid assay; details: Huh-7 cells; GAL4/BD-fused and VP16/AD-fused NS5A both carry the mutations; parent: est. 100; read off a plot
[3] = target: YFP-fused JFH1 NS5A 148A of HJ3-5/NS5A^YFP (hepatitis C virus genotype 2a (JFH1 strain)); assay: co-IP; GFP immunoprecipitation (anti-GFP magnetic beads, 1 h, 4 C) of NS5A^YFP from lysates (0.5% Triton X-100, 10 mM Tris-HCl pH 7.5, 150 mM NaCl) of cells electroporated with HJ3-5/NS5A^YFP RNA; core detected by western blot; ratio of co-IP core per IP NS5A^YFP
[4] = target: YFP-fused JFH1 NS5A 37A of HJ3-5/NS5A^YFP (hepatitis C virus genotype 2a (JFH1 strain)); assay: as above
[5] = target: YFP-fused JFH1 NS5A 38A of HJ3-5/NS5A^YFP (hepatitis C virus genotype 2a (JFH1 strain)); assay: as above
H77 NS5A 148A = assay: mammalian two-hybrid assay; details: Huh-7 cells; GAL4/BD-fused and VP16/AD-fused NS5A both carry the mutation; parent: est. 100; read off a plot
JFH1 NS5A 37A = assay: checkmate mammalian two-hybrid assay; details: Huh-7 cells; GAL4/BD-fused and VP16/AD-fused NS5A both carry the mutation; parent: est. 100; read off a plot
[6] = target: JFH1 NS5A 112A/148A (mutation group b); assay: checkmate mammalian two-hybrid assay; details: Huh-7 cells; GAL4/BD-fused and VP16/AD-fused NS5A both carry the mutations; parent: est. 100; read off a plot
[7] = target: JFH1 NS5A 36A (hepatitis C virus genotype 2a (JFH1 strain)); assay: two-hybrid; Checkmate mammalian two-hybrid: GAL4/BD fusion (pBIND) and VP16/AD fusion (pACT) with the pGL4.3[luc2P/Gal4UAS/Hygro] reporter co-transfected into FT3-7 (Huh-7) cells; lysed at 48 h; F-Luc/R-Luc ratio; for NS5A both fusions carry the same NS5A
[8] = target: H77 NS5A 36A/37A/38A/112A/148A (both mutation groups); assay: checkmate mammalian two-hybrid assay; details: Huh-7 cells; GAL4/BD-fused and VP16/AD-fused NS5A both carry the mutations; parent: est. 100; read off a plot
[9] = target: JFH1 NS5A 36A/37A/38A (mutation group a); assay: checkmate mammalian two-hybrid assay; details: Huh-7 cells; GAL4/BD-fused and VP16/AD-fused NS5A both carry the mutations; parent: est. 100; read off a plot
JFH1 NS5A 112A = JFH1 NS5A 112A (UniProt Q99IB8); assay: checkmate mammalian two-hybrid assay; details: Huh-7 cells; GAL4/BD-fused and VP16/AD-fused NS5A both carry the mutation; parent: est. 100; read off a plot
[10] = target: H77 NS5A 112A/148A (mutation group b); assay: checkmate mammalian two-hybrid assay; details: Huh-7 cells; GAL4/BD-fused and VP16/AD-fused NS5A both carry the mutations; parent: est. 100; read off a plot
JFH1 NS5A 36A = assay: checkmate mammalian two-hybrid assay; details: Huh-7 cells; GAL4/BD-fused and VP16/AD-fused NS5A both carry the mutation; parent: est. 100; read off a plot
H77 NS5A 112A = H77 NS5A 112A (UniProt P27958); assay: mammalian two-hybrid assay; details: Huh-7 cells; GAL4/BD-fused and VP16/AD-fused NS5A both carry the mutation; parent: est. 100; read off a plot
H77 NS5A 37A = assay: mammalian two-hybrid assay; details: Huh-7 cells; GAL4/BD-fused and VP16/AD-fused NS5A both carry the mutation; parent: est. 100; read off a plot
[11] = target: JFH1 NS5A 36A/37A/38A/112A/148A (both mutation groups combined); assay: checkmate mammalian two-hybrid assay; details: Huh-7 cells; GAL4/BD-fused and VP16/AD-fused NS5A both carry the mutations; parent: est. 100; read off a plot

H77 NS5A 38A (natural protein)
percent above wt NS5A self-interaction (F-Luc/R-Luc) [1]: 30 % above wt

wild-type full-length NS5A of gt2a HCV JFH1 (from UniProt Q99IB8) 38A
percent of parent (JFH1 NS5A 38A): 77 % wt

wild-type full-length NS5A of gt1a HCV H77 (from UniProt P27958) 38A
percent of parent (H77 NS5A 38A): 130 % wt

wild-type full-length NS5A of gt1a HCV H77 (from UniProt P27958) 36A; 37A; 38A
percent of parent [2]: 17 % wt

HCV core protein (H77 core of the chimera HJ3-5) (natural protein)
NS5A and core co-IP efficiency against wt (% lower than wt) [3]: 50
NS5A and core co-IP efficiency against wt (% lower than wt) [4]: 50
NS5A and core co-IP efficiency against wt (% lower than wt) [5]: 50

wild-type full-length NS5A of gt1a HCV H77 (from UniProt P27958) 148A
percent of parent (H77 NS5A 148A): 13 % wt

wild-type full-length NS5A of gt2a HCV JFH1 (from UniProt Q99IB8) 37A
percent of parent (JFH1 NS5A 37A): 78 % wt

wild-type full-length NS5A of gt2a HCV JFH1 (from UniProt Q99IB8) 112A; 148A
percent of parent [6]: 2.7 % wt

JFH1 NS5A 36A (natural protein)
percent of wt NS5A self-interaction (F-Luc/R-Luc) [7]: 20 % of wt

wild-type full-length NS5A of gt1a HCV H77 (from UniProt P27958) 36A; 37A; 38A; 112A; 148A
percent of parent [8]: 3.3 % wt

wild-type full-length NS5A of gt2a HCV JFH1 (from UniProt Q99IB8) 36A; 37A; 38A
percent of parent [9]: 11 % wt

wild-type full-length NS5A of gt2a HCV JFH1 (from UniProt Q99IB8) 112A
percent of parent (JFH1 NS5A 112A): 110 % wt

wild-type full-length NS5A of gt1a HCV H77 (from UniProt P27958) 112A; 148A
percent of parent [10]: 11 % wt

wild-type full-length NS5A of gt2a HCV JFH1 (from UniProt Q99IB8) 36A
percent of parent (JFH1 NS5A 36A): 22 % wt

wild-type full-length NS5A of gt1a HCV H77 (from UniProt P27958) 112A
percent of parent (H77 NS5A 112A): 27 % wt

wild-type full-length NS5A of gt1a HCV H77 (from UniProt P27958) 37A
percent of parent (H77 NS5A 37A): 45 % wt

wild-type full-length NS5A of gt2a HCV JFH1 (from UniProt Q99IB8) 36A; 37A; 38A; 112A; 148A
percent of parent [11]: 2.5 % wt
